Consider two substances from paper PMC11409674, “Raffinocyclicin is a novel plasmid-encoded circular bacteriocin produced by Lactococcus raffinolactis with broad-spectrum activity against many gram-positive food pathogens” (Applied and environmental microbiology, 2024).

Series [1] relates to proteases. Further details: method as in 4 sources, ref 33 = [33]; PMID 21948835; doi:10.1128/AEM.06348-11; 33 Masuda Y Ono H Kitagawa H Ito H Mu F Sawa N Zendo T Sonomoto K Identification and characterization of leucocyclicin Q, a novel cyclic bacteriocin produced by Leuconostoc mesenteroides TK41401 Appl ||| ref 27 = [27]; PMID 21057028; doi:10.1128/AEM.01173-10; 27 Borrero J Brede DA Skaugen M Diep DB Herranz C Nes IF Cintas LM Hernández PE Characterization of garvicin ML, a novel circular bacteriocin produced by Lactococcus garvieae DCC43, isolated from mall ||| ref 30 = [30]; PMID 29177092; doi:10.1099/mgen.0.000134; 30 van Heel AJ Montalban-Lopez M Oliveau Q Kuipers OP Genome-guided identification of novel head-to-tail cyclized antimicrobial peptides, exemplified by the discovery of pumilarin Microb Genom 2017 3 ||| ref 29 = [29]; PMID 18552180; doi:10.1128/AEM.00817-08; 29 Martin-Visscher LA van Belkum MJ Garneau-Tsodikova S Whittal RM Zheng J McMullen LM Vederas JC Isolation and characterization of carnocyclin A, a novel circular bacteriocin produced by Carnobacteri. As to conditions: cited from earlier work.

Series [2] addresses T1, proteinase K (Parengyodontium album, UniProt P06873).
T1 construct: purchased Sigma-Aldrich, St Louis, USA
As to the kind of experiment: residual antimicrobial activity after proteinase K treatment. The format is in vitro ADME. The following applies: proteinase K 1 mg/mL, 37 °C, 4 h.

T1 sequence (P06873 106-384): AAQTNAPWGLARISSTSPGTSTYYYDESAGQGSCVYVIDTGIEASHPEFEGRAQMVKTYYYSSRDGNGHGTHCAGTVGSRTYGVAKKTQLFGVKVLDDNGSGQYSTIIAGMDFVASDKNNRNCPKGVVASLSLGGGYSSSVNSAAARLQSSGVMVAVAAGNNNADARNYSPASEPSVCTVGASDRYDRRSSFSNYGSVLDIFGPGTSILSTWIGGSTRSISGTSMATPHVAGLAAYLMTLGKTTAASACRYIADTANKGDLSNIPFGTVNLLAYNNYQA

As for “carnocyclin A (LVAYGIAQGTAEKVVSLINAGLTVGSIISILGGVTVGLSGVFTAVKAAIAKQGIKKAIQL; UniProt B2MVM5 5-64, looked up) [circular bacteriocin]”, in series [1], the “antimicrobial activity after protease treatment” value is reported as “completely abolished”.

As to raffinocyclicin, the “loss of activity when treated with proteinase K” value in series [2] (indicator L. lactis HP) is recorded as “over 90%”. For the same substance, the Phenotype entry in series [2] (40 µL spotted around chloroform-inactivated producer spot, overlay L. lactis HP, 30 °C, 24 h) is “S”. The same substance had a Residual activity in series [2] (40 µL spotted around chloroform-inactivated producer spot, overlay L. lactis HP, 30 °C, 24 h, true halo treated/control (10 mM PBS pH 7.4) × 100) of 7%.
